The values below come from US20260152571A1.

The chains are these.
B1: 3A6-IgG1-SI (antibody, V domains shown)
VH: QVQLQESGPGMVKPSETLSLTCTVSGGSISYNYWSWIRQPPGKGLEWIGYIYHSGTTKYNPSLKSRVTMSVDTSKNHFSLKLNSVTAADTAVYYCARHEDYWFFDLWGRGTLVTVSS
VL: DIQMTQSPSSLSASVGDRVTITCRASQGISNYLVWFQQKPGKAPKSLIYAASILQSGVPSKFSGSGSGTDFTLTINSLQPEDFATYYCQQYNTYPFTFGPGTKVDIK
B2: 7B9-IgG1-SI (antibody, V domains shown)
VH: EVQLVESGGGVVQPGGSLRLSCAASGFTFDDYAMHWVRQAPGKGLEWVSLISGDDGSTYYADSMKGRITISRDNSKNSLYLQMNSLRTEDTAMYYCAKASYGSGSYLYNYGMDVWGQGTTVTVFS
VL: DIQLTQSPSSLSASVGDRVTITCQASQDIINYLNWYQQKPGKAPKLLIYDTSNLETGVPSRFSGSGSGTDFAFTINSLQPEDIATYYCQQFVNLPLTFGGGTKVEIK
B3: 4F10-IgG1-SI (antibody, V domains shown)
VH: QVQLQESGPGLVKPSETLSLTCTVSGGSISNYYWSWIRQPPGKGLEWIGYIYYSGSTNYNPSLKSRVNISVDTSKSQVSLKLNSVIAADTAVYYCARHEDYWYFDLWGRGTLVTVSS
VL: DIQLTQSPSSLSASIRDRVTITCRASQDINNYLAWFQQKPGKAPKSLIYAVSSLESGVPSKFSGSGSGTDFTLTISSLQPEDFATYFCQQYNSYPFTFGPGTKVEIK
B4: P01264-IgG1-SI (antibody, V domains shown)
VH: EVQLVESGGGLVKPGGSLRLSCAASGFTFSNAWMNWVRQAPGKGLEWVGRIKSKTDGGTTDYAAPVKGRFTISRHDSKNTLYLQMNSLKTEDTAVYYCATDPRIAVTGTDYYYGMDVWGQGTTVTVSS
VL: DIVMTQTPSFLSASVGDRVTITCRASQDISNYLNWYQQKPGKAPKLLIYDASNLETGVPSRFSGSGSGTDFTFTISSLQPEDIATYYCQQYDNLPITFGQGTRLEIK
B5: 1G7-IgG1-SI (antibody, V domains shown)
VH: QVQLVESGGGVVRPGGSLRLSCTASGFTFDDYGMTWVRQAPGKGLEWVSGINWNGGSTGYADSVKGRFTISRDNAKNSLFLQMNSLRAEDTALYYCARDQGIAVVGTHYYYYYGMDVWGQGTAVTVSS
VL: EIVLTQSPATLSLSPGERATLSCRASQSFSSYLAWYQQKPGQAPRLLIFDTSNRATGIPARFSGSGSGTDFTLTISSLEPEDFAVYYCQQRSNWPLTFGGGTKVEIK

The first test has as its target HLA-A2 on T2 cells without added peptide (human). Nature of the test: flow cytometry, T2 cells without peptide, antibody 10 µg/mL. Background: In flow cytometry, cells or beads pass a laser one at a time.
B1 displayed a Percentage of Positive Cells (%) of 5.77%.

The molecule B2 showed a Percentage of Positive Cells (%) of 4.66%.

Consider B3, for which the Percentage of Positive Cells (%) turned out to be 7.67%.

For the molecule B4, the Percentage of Positive Cells (%) was 4.65%.

In the case of B5, the Percentage of Positive Cells (%) was determined as 5.32%.

The target of the next test is PIGQ/HLA complex on PIGQ-pulsed T2 cells (human). Nature of the test: flow cytometry, T2 cells pulsed with 25 µM PIGQ peptide, antibody 10 µg/mL.
Turning to B1, the Percentage of Positive Cells (%) worked out at 5.2%.

In turn, B2 gave a Percentage of Positive Cells (%) of 5.13%.

Consider B3, for which the Percentage of Positive Cells (%) was 7.37%.

As to B4, the Percentage of Positive Cells (%) amounted to 4.93%.

As to B5, the Percentage of Positive Cells (%) stood at 5.12%.

The next test deals with MED13L/HLA complex on MED13L-pulsed T2 cells (human). Put plainly: flow cytometry, T2 cells pulsed with 25 µM MED13L peptide, antibody 10 µg/mL.
With B1, the Percentage of Positive Cells (%) came to 5.72%.

B2 displayed a Percentage of Positive Cells (%) of 7.68%.

B3 displayed a Percentage of Positive Cells (%) of 13.1%.

For the molecule B4, the Percentage of Positive Cells (%) is 5.87%.

In turn, B5 had a Percentage of Positive Cells (%) of 5.12%.
